Assay results published in patent publication US20240109974A1 (SHANDONG SIMCERE BIOPHARMACEUTICAL, published 2024).

T1: human TNFR2 (Novoprotein, Cat #C830) (human, UniProt P20333 23-257, limits assumed)
T1 construct: construct not described; also called human TNFR2 protein
T1 sequence (looked up): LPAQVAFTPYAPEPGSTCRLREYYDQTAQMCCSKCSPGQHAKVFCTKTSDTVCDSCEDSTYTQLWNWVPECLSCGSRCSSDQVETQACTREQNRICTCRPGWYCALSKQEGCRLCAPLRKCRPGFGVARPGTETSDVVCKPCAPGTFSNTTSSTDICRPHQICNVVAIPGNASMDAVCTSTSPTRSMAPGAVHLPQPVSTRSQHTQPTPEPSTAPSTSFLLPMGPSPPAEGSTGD

T2: human TNFR2 on the surface of CHO-TNFR2 cells (human, UniProt P20333 23-461)
T2 construct: whole, on cells
T2 sequence (looked up): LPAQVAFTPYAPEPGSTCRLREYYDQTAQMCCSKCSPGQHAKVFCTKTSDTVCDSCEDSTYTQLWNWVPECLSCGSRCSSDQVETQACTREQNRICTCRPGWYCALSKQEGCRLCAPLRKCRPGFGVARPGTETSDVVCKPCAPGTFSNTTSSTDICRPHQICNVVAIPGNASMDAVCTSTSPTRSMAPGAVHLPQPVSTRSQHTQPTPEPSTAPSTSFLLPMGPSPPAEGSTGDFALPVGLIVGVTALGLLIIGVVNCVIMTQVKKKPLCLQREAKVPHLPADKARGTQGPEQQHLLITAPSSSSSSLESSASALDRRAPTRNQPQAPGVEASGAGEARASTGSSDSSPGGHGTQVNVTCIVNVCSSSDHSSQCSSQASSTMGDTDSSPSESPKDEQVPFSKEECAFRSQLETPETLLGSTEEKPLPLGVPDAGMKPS


Columns and labels:
[1] = biological target: T1, human TNFR2 (Novoprotein, Cat #C830); experiment: competition ELISA, competitor human TNFα-Biotin; IC50 against 219-WT
Method: 1 μg/ml human TNFR2 (Novoprotein, Cat #C830) was pre-coated with 100 μl/well […] in an ELISA plate. All the test TNFR2 antibodies were subjected to 2.5-fold gradient dilution from the highest concentration of 30 μg/ml; the diluted antibodies were mixed with 15 ng/ml human TNFα-Biotin (Acro Biosystem, Cat #TNA-H82E3) in equal volume, respectively; the resulting mixture was added to the ELISA plate at 100 μl/well, and incubated with shaking at room temperature for 2.0 hours. The plate was washed, and then a Streptavidin-HRP working solution (diluted at 1:10000) was added at 100 μl/well, and the mixture was incubated with shaking at room temperature for 40 minutes. The plate was washed again, and then the substrate TMB of HRP was added to develop colour. A stop solution was added to stop the reaction, and then a microplate reader (MD 13) was used to read the absorbance value. The inhibitory curve of an antibody was drawn with antibody concentration as the abscissa and corresponding OD value as the ordinate, and fitted with four parameters (GraphPad Prism9) to calculate the IC50 value. The smaller the IC50 value, the stronger the ability of an antibody to inhibit the binding of human TNFα to human TNFR2. The blocking effect of a humanized antibody was normalized to its corresponding human-murine chimeric antibody WT. The higher the percentage value, the better the inhibitory effect of the humanized antibody.

[2] = biological target: T2, human TNFR2 on the surface of CHO-TNFR2 …; experiment: flow cytometry on CHO-TNFR2 cells; EC50 against 001-WT
Method: The transfected full-length plasmid of human TNFR2 was purchased from Sino Biological (Cat #HG10417-UT, NCBI Ref Seq: NM_001066.2). The experiment was conducted at a cell density within 80%. The cell medium was discarded; the cells were rinsed with PBS, and digested with 1 ml trypsin for 2 minutes; the digestion was stopped with a Ham's F12 complete medium containing 10% FBS, and then a cell suspension was made. The cell suspension was counted, and then an appropriate amount of cell suspension was centrifuged at 350×g; the supernatant was discarded; a corresponding volume of blocking solution (10% FBS+PBS) at a density of 1×10⁷ cells/ml was added to resuspend the cells, and the mixture was incubated at 4° C. for 30 minutes. After the incubation, the mixture was centrifuged at 350×g to remove the supernatant, and the cells were resuspended in a staining buffer (2% FBS+PBS) to a density of 2×10⁶ cells/ml, and spread onto a 96-well plate, with 50 μl of cell suspension added to each well for later use. The antibody was diluted with PBS for 10-fold gradient dilution from the highest concentration of 20 μg/m (twice the concentration); the diluted antibody was added to the well containing 50 μl of cell suspension, and placed on a microplate shaker for shaking at 500 rpm for 1 minute, so that the antibody was fully mixed with the cells; the mixture was incubated at 4° C. for 1 h. After the incubation, the cells were washed twice with the staining buffer, with 100 μl per well, and centrifuged at 350-g for 5 minutes, and the supernatant was discarded. The PE goat anti-Human IgG Fc antibody (ebioscience, Cat #12-4998-82) was diluted 250-fold with the staining buffer, with a volume of 100 μl per well added to the washed cell wells; the mixture was mixed evenly, and stained at 4° C. for 30 minutes. After the staining, similarly, the cells were washed twice with the staining buffer; finally, the cells were resuspended in 200 μl of staining buffer; signals were detected by a flow cytometer (Thermo Attune NxT). The stronger the signal, the stronger the binding ability of an antibody to TNFR2. The binding curve of an antibody was drawn with antibody concentration as the abscissa and corresponding mean fluorescence intensity (MFI) fold as the ordinate, and fitted with four parameters (GraphPad Prism9) to calculate the EC50 value.

Binder | % Relative activity (WT antibody/test antibody) [1] [%] | % Relative activity (WT antibody/test antibody) [2] [%]
219-Hu3 (antibody, V domains shown, also called VH5 + VL5) VH: QVQLVQSGAEVKKPGSSVKVSCKASGYSFTNYWMNWVRQAPGQGLEWMGMIHPSDTETRLNQNFKDRVTITADKSTSTAYMELSSLRSEDTAVYYCARGEGLGAARSVSMDYWGQGTLVTVSS VL: DIQMTQSPSSLSASVGDRVTITCRASQDISNYLNWYQQKPDGTVKLLIYYTAILHSGVPSRFSGSGSGTDYSLTISSLQPEDFATYFCQQGNTLPWTFGQGTKVEIK | 111 | –
219-Hu2 (antibody, V domains shown, also called VH4 + VL5) VH: QVQLVQSGAEVKKPGSSVKVSCKASGYSFTNYWMNWVRQAPGQGLEWMGMIHPSDTETRLNQNFKDKATITADKSTSTAYMELSSLRSEDTAVYYCARGEGLGAARSVSMDYWGQGTLVTVSS VL: DIQMTQSPSSLSASVGDRVTITCRASQDISNYLNWYQQKPDGTVKLLIYYTAILHSGVPSRFSGSGSGTDYSLTISSLQPEDFATYFCQQGNTLPWTFGQGTKVEIK | 120 | –
219-Hu1 (antibody, V domains shown, also called VH3 + VL5) VH: QVQLVQSGAEVKKPGASVKVSCKASGYSFTNYWMNWVRQAPGQRLEWMGMIHPSDTETRLNQNFKDRVTITRDTSASTAYMELSSLRSEDTAVYYCARGEGLGAARSVSMDYWGQGTLVTVSS VL: DIQMTQSPSSLSASVGDRVTITCRASQDISNYLNWYQQKPDGTVKLLIYYTAILHSGVPSRFSGSGSGTDYSLTISSLQPEDFATYFCQQGNTLPWTFGQGTKVEIK | 128 | –
219-Hu5 (antibody, V domains shown, also called VH7 + VL5) VH: QVQLVQSGAEVKKPGSSVKVSCKASGYSFTNYWMNWVRQAPGQGLEWMGMIHPSDTETRLNQNFKDRVTITVDKSTSTAYMELSSLRSEDTAVYYCARGEGLGAARSVSMDYWGQGTLVTVSS VL: DIQMTQSPSSLSASVGDRVTITCRASQDISNYLNWYQQKPDGTVKLLIYYTAILHSGVPSRFSGSGSGTDYSLTISSLQPEDFATYFCQQGNTLPWTFGQGTKVEIK | 136 | –
219-Hu4 (antibody, V domains shown, also called VH6 + VL5) VH: QVQLVQSGAEVKKPGSSVKVSCKASGYSFTNYWMNWVKQAPGQGLEWIGMIHPSDTETRLNQNFKDKATLTVDKSTSTAYMELSSLRSEDTAVYYCARGEGLGAARSVSMDYWGQGTLVTVSS VL: DIQMTQSPSSLSASVGDRVTITCRASQDISNYLNWYQQKPDGTVKLLIYYTAILHSGVPSRFSGSGSGTDYSLTISSLQPEDFATYFCQQGNTLPWTFGQGTKVEIK | 126 | –
001-Hu5 (antibody, V domains shown, Humanized form of #001; also called VH1 + VL4) VH: EVQLVESGGGLVQPGGSLRLSCAASGFAFSTYDLSWVRQAPGKGLEWVAYINNGGISTYYSDTVKGRFTISRDNAKNTLYLQMNSLRAEDTAVYYCVRGPFYGSANYFDYWGQGTLVTVSS VL: DIQMTQSPSSLSASVGDRVTITCRTSESIYSNLPWYQQKPGKSPKLLVYDATKLAEGVPSRFSGSGSGTDYTLTISSLQPEDFATYYCQHFWVTPWTFGQGTKVEIK | – | 123
001-Hu4 (antibody, V domains shown, Humanized form of #001; also called VH2 + VL4) VH: EVQLVESGGGLVQPGGSLRLSCAASGFAFSTYDLSWVRQAPGKGLEWVAYINNGGISTYYSDTVKGRFTISRDNAKNSLYLQMNSLRAEDTAVYYCVRGPFYGSANYFDYWGQGTLVTVSS VL: DIQMTQSPSSLSASVGDRVTITCRTSESIYSNLPWYQQKPGKSPKLLVYDATKLAEGVPSRFSGSGSGTDYTLTISSLQPEDFATYYCQHFWVTPWTFGQGTKVEIK | – | 129
001-Hu1 (antibody, V domains shown, Humanized form of #001; also called VH1 + VL1) VH: EVQLVESGGGLVQPGGSLRLSCAASGFAFSTYDLSWVRQAPGKGLEWVAYINNGGISTYYSDTVKGRFTISRDNAKNTLYLQMNSLRAEDTAVYYCVRGPFYGSANYFDYWGQGTLVTVSS VL: DIQMTQSPSSLSASVGDRVTITCRTSESIYSNLPWYQQKPGKAPKLLLYDATKLAEGVPSRFSGSGSGTDYTLTISSLQPEDFATYYCQHFWVTPWTFGQGTKVEIK | – | 78
001-Hu3 (antibody, V domains shown, Humanized form of #001; also called VH1 + VL3) VH: EVQLVESGGGLVQPGGSLRLSCAASGFAFSTYDLSWVRQAPGKGLEWVAYINNGGISTYYSDTVKGRFTISRDNAKNTLYLQMNSLRAEDTAVYYCVRGPFYGSANYFDYWGQGTLVTVSS VL: DIQMTQSPSSLSASVGDRVTITCRTSESIYSNLPWYQQKPGKAPKLLIYDATKLAEGVPSRFSGSGSGTDYTLTISSLQPEDFATYYCQHFWVTPWTFGQGTKVEIK | – | 101
001-Hu2 (antibody, V domains shown, Humanized form of #001; also called VH2 + VL2) VH: EVQLVESGGGLVQPGGSLRLSCAASGFAFSTYDLSWVRQAPGKGLEWVAYINNGGISTYYSDTVKGRFTISRDNAKNSLYLQMNSLRAEDTAVYYCVRGPFYGSANYFDYWGQGTLVTVSS VL: DIQMTQSPSSLSASVGDRVTITCRTSESIYSNLPWYQQKPGKSPKLLIYDATKLAEGVPSRFSGSGSGTDFTLTISSLQPEDFATYYCQHFWVTPWTFGQGTKVEIK | – | 48
